US20180128830A1, “DETECTION OF HUMAN CYTOMEGALOVIRUS IN BREAST CANCER” (priority 2015, published 2018)

Assays:
MDA-MB-231 cells [1] = experiment: Apoptosis, Annexin V-FITC flow cytometry; type: cell-based, human; settings: 100 μM etoposide, 48 hrs
Method: (§1) Cells were seeded into 96-well dishes at a density of 1×10^4 cell per well in complete medium with varying doses of cmvIL-10, and then cell viability measured at the indicated time points using the Cell Titer Glo Assay kit according to manufacturer's instructions (Promega). DNA synthesis was measured in cells prepared in the same way using the BrdU Cell Proliferation ELISA Kit (Roche, Basel, Switzerland). For experiments using inhibitors, cells were cultivated in 96-well dishes as above with a final concentration of 10 μM inhibitor and BrdU incorporation evaluated after 72 hrs. For cell counts, cells were seeded into 6-well plates at a density of 2×10^5 cells per well, harvested via trypsinization, and counted using a hemacytometer at the indicated time points. The TACS Annexin V-FITC Detection Kit (Trevigen, Gaithersburg, Md.) was used to stain cells harvested from 70% confluent T75 flasks that had been treated with 100 μM etoposide for 48 hrs in the presence or absence of 100 ng/ml cmvIL-10. Cells were then analyzed via flow cytometry to detect fluorescence. For viability assays, Cell Titer Glo reagent was utilized to quantify cells that had been seeded into 96-well dishes at a density of 1×10^4 cell per well in complete medium with varying doses of etoposide in the presence or absence of 100 ng/ml cmvIL-10 as indicated

HEK293 cells = experiment: Transwell migration toward CXCL12; type: cell-based, human; settings: 4 hours, 5.0 μm filter
Method: Transwell migration assays were performed by suspending cells at a density of 5×10^4 cells/ml in migration media (MEM or RPMI […] media plus 0.5% FBS). A total of 75 μl of cells was placed onto the upper chamber of a 96-well transwell system with 5.0 μm pores (Corning-Costar, Corning, N.Y.). The lower chamber contained 235 μl of migration media with CXCL12 plus or minus cmvIL-10 as indicated. Plates were incubated for four hours at 37° C., and then cells that traversed through the filter into the lower chamber were quantified via the addition of CellTitre-Glo reagent (Promega, Madison, Wis.) according to manufacturer's instructions.

CXCR4 = target: T1, CXCR4 (Homo sapiens, UniProt P61073); experiment: Calcium flux assay in HEK293 cells; type: cell-based; settings: CXCL12 0.1 μg/ml alone
T1 construct: HEK293 cells, which endogenously express both CXCR4 and IL-10R; endogenous in cells; host or cells: HEK293
T1 sequence (P61073 whole entry): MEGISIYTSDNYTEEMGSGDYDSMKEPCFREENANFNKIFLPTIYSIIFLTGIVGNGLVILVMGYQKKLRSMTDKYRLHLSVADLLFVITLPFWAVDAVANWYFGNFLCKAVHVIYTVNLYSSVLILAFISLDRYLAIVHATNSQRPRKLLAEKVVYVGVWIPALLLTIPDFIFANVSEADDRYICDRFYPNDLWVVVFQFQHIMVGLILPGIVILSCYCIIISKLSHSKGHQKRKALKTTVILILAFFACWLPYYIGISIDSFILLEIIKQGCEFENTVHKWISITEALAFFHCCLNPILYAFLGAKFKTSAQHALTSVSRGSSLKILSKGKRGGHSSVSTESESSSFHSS
Method: Calcium flux assays were performed as described (Arnolds K L, et al. Virology 439:122-131.). Briefly, cells were resuspended in 2 mls calcium assay buffer (RPMI with 25 mM of HEPES) at a density of 5×10^5 cells/ml per sample. Each sample was labeled with 2 μl of Fluo-4AM (Invitrogen, Grand Island, N.Y.), wrapped in foil, at 37° C. for 30 minutes with agitation at 10-minute intervals. Following incubation, each sample was pelleted, resuspended in calcium assay buffer, and transferred into an eppendorf tube for flow cytometry using the BD C6 Accuri. Fluorescence intensity of each sample was measured for 20 seconds to establish baseline, then stimulus (CXCL12, in the presence or absence of cmvIL-10, as indicated) was added via micropipetting directly into the sample while fluorescence intensity was measured. Kinetic fluorescence intensity analysis was performed with FlowJo software v9.4.9 (FlowJo, Ashland, Oreg.). Purified recombinant cmvIL-10 was purchased from R&D Systems (Minneapolis, Minn.) and purified recombinant CXCL12 was purchased from Peprotech (Rocky Hill, N.J.). For each calcium flux assay, ionomycin (Sigma) was a positive control for Fluo-4AM loading and PBS served as a negative control for the addition of stimulus.

MDA-MB-231 cells [2] = experiment: DNA synthesis, BrdU Cell Proliferation ELISA; type: cell-based, human; settings: 10 ng/ml of each cytokine, 72 hrs
Method: as §1

Stat1 = experiment: Western blot for Stat1 phosphorylation in MDA-MB-231 cells; type: cell-based, human; settings: 100 ng/ml, 15 min
Method: (§2) For western blotting, cells were treated with 100 ng/ml cmvIL-10, hIL-10, IFNγ or PBS for 15 min, then harvested into cell lysis buffer (150 mM NaCl, 20 mM HEPES, 0.5% Triton-X-100, 1 mM NaOV4, 1 mM EDTA, 0.1% NaN3). Lysates were clarified, proteins were separated via SDS-PAGE, and then transferred to a nitrocellulose membrane. Then membrane was incubated in blocking solution (5% milk+1×TBS-T) for 1 hr, then probed with primary antibody at a 1:1000 dilution (total Stat3 or pStat3, total Stat1 or pStat1) in blocking solution overnight at 4° C. After washing, the membranes were incubated with a 1:2000 dilution of appropriate AP-conjugated secondary antibody and bands were detected using Western Blue stabilized AP substrate (Promega, Madison, Wis.). For analysis of secreted proteins, supernatants were collected at various time points, analyzed by SDS-PAGE and then immunoblotted as above for cmvIL-10, hIL-10, or serpin E1/PAI.

Stat3 = experiment: Western blot for Stat3 phosphorylation in MDA-MB-231 cells; type: cell-based, human; settings: 100 ng/ml, 15 min
Method: as §2

COc1cc([C@@H]2c3cc4c(cc3[C@@H](O[C@@H]3O[C@@H]5CO[C@@H](C)O[C@H]5[C@H](O)[C@H]3O)[C@H]3COC(=O)[C@H]23)OCO4)cc(OC)c1O [etoposide, reference compound]
cells stained positive for Annexin V (MDA-MB-231 cells [1]): 30.9%

CXCL12: purified recombinant CXCL12 chemokine from Peprotech
CXCL12 dose giving maximal migration (HEK293 cells): 0.1 ng/mL
calcium mobilization (fluorescence) (CXCR4): rapid but transient increase in fluorescence

IL-6: purified recombinant IL-6 from R&D Systems
cell proliferation (BrdU incorporation) (MDA-MB-231 cells [2]): inhibited cell growth

B1: IFNγ: purified recombinant interferon-gamma from R&D Systems (protein, UniProt P01579 24-161, looked up)
Interferon gamma: QDPYVKEAENLKKYFNAGHSDVADNGTLFLGILKNWKEESDRKIMQSQIVSFYFKLFKNFKDDQSIQKSVETIKEDMNVKFFNSNKKKRDDFEKLTNYSVTDLNVQRKAIHELIQVMAELSPAAKTGKRKRSQMLFRG
cell proliferation (BrdU incorporation) (MDA-MB-231 cells [2]): inhibited cell growth
Stat1 phosphorylation (Stat1): phosphorylated in response to IFNγ treatment only
83 kD band of phosphorylated Stat3 (pStat3) (Stat3): not
